# What was measured:
# von Willebrand factor [1] = target: von Willebrand factor (UniProt P04275); assay: as above, after thrombin digestion (activated factor VIII) in the absence of antibody; set-up: unit not given here
# von Willebrand factor [2] = target: von Willebrand factor (UniProt P04275); assay: biotinylated recombinant factor VIII complexed to von Willebrand factor, captured on the anti-von Willebrand factor antibody MoAb4H1D7, no thrombin digestion, avidin-peroxidase detection; set-up: unit not given here
substance,measurement,setting,value
human recombinant factor VIII (from UniProt P00451 20-2351),OD450 (OD450 (so in the source)),von Willebrand factor [1],160
same,OD450 (OD450 (so in the source)),von Willebrand factor [2],460
